B1: anti-NGF antibody 14D10 (antibody, V domains shown)
VH: EVQLVESGGGLVQPGRSLRLSCTASGFTFEDYAMHWVRQAPGKGLEWVSGISWNRGIIGYADSVKGRFTVSRDNAKNSLYLQMNSLRAEDTALYYCAKEGYYGSGRPGYFYYVMDVWGQGTTVTVSS
VL: EIVLTQSPGTLSLSPGERATLSCRASQSVSSGFLAWFQQKPGQAPRLLIYGASSRATAIPDRFSGSGSGTDFTLTISRLEPEDFAVYYCQQYGSSPYTFGQGTKLEIK
B2: anti-NGF antibody 14D11 (antibody, V domains shown)
VH: EVQLVQSGAEVKKPGESLKISCKGSGYNFTTYWIGWVRQMPGKGLEWMGIIYPGDSDTKYSPSFQGQVTISADKSISTAYLQWSSLKASDTAMYYCARNYYGSGTYYYYYGMNVWGQGTTVTVSS
VL: DIQMTQSPSSVSASVGDRVTITCRASQGISIWLAWYQHKPGKAPKLLIYAASSLQSGVPSRFSGSGSGTDFTLTISSLQPEDFATYYCQQANSFPWTFGQGTKVEIK

Legend:
[1] = molecular target: recombinant rat beta-NGF (R&D Systems) (rat) (UniProt P25427); assay: cell-based or functional assay
[2] = molecular target: recombinant human NGF 1-120 (human) (UniProt P01138); assay: cell-based or functional assay
Chain of recombinant human NGF 1-120 (human) (P01138 other isoform, or with tags, fused parts or gaps): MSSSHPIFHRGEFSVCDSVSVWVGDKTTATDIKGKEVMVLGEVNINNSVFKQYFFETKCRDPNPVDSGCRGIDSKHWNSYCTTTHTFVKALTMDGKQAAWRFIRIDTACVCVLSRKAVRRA

Chain of recombinant rat beta-NGF (R&D Systems) (rat) (P25427 122-241 limits assumed): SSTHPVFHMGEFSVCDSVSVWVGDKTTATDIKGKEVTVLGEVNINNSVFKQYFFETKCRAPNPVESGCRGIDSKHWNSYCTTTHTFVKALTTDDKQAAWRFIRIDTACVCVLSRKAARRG

Binder	IC50 @ rNGF, NGF neutralization activity as in Example 3 [1] [nM]	IC50 @ hNGF, NGF neutralization activity as in Example 3 [2] [nM]
B1	> 13	0.392
B2	> 20	0.28

— patent US20160237147A1
